Data published in patent US20200261595A1 (Novo Nordisk, published 2020).
Positions count from the first letter of the chain named. In names and notes the source's numbering stands.

B1: (A14E, A21G, A22(GQAP)19, A98K^, A99P, B25H, B29R, desB30 human insulin)/(227A, 234A, 235K, 297E, 315Q, 384Q, des447 hIgG4-Fc(228-447)) … (other)
chain 1: GIVEQCCTSICSLEQLENYCGGQAPGQAPGQAPGQAPGQAPGQAPGQAPGQAPGQAPGQAPGQAPGQAPGQAPGQAPGQAPGQAPGQAPGQAPGQAPKP
chain 2: FVNQHLCGSHLVEALYLVCGERGFHYTPR
chain 3: ASCPAPEAKGGPSVFLFPPKPKDTLMISRTPEVTCVVVDVSQEDPEVQFNWYVDGVEVHNAKTKPREEQFESTYRVVSVLTVLHQDWLQGKEYKCKVSNKGLPSSIEKTISKAKGQPREPQVYTLPPSQEEMTKNQVSLTCLVKGFYPSDIAVEWESQGQPENNYKTTPPVLDSDGSFFLYSRLTVDKSRWQEGNVFSCSVMHEALHNHYTQKSLSLSLG
modifications: Cys229 (EU numbering) sulphur bound to an acetyl arm of the linker; A98K N(eps) acylated by the trivalent linker 4-[bis[2-[(2-acetyl)amino]ethyl]amino]-4-oxo-butanoyl
notes: also called Ex 5.15
B2: A14E, A21G, A22(GQEP)19, A98K^, A99P, B3Q, B25H, B29R, desB30 human insulin/(227A, 234A, 235K, 297E, 315Q, 384Q, des447 hIgG4-Fc(228-447)) … (other)
chain 1: GIVEQCCTSICSLEQLENYCGGQEPGQEPGQEPGQEPGQEPGQEPGQEPGQEPGQEPGQEPGQEPGQEPGQEPGQEPGQEPGQEPGQEPGQEPGQEPKP
chain 2: FVQQHLCGSHLVEALYLVCGERGFHYTPR
chain 3: B1 chain 3
modifications: Cys229 (EU numbering) sulphur bound to an acetyl arm of the linker; A98K N(eps) acylated by the trivalent linker 4-[bis[2-[(2-acetyl)amino]ethyl]amino]-4-oxo-butanoyl
notes: also called Ex 5.2
B3: A14E, A21G, A22(GQAPGQEP)6, A70K^, A71P, B25H, B29R, desB30 human insulin/(227A, 234A, 235K, 297E, 315Q, 384Q, des447 hIgG4-Fc(228-447)) … (other)
chain 1: GIVEQCCTSICSLEQLENYCGGQAPGQEPGQAPGQEPGQAPGQEPGQAPGQEPGQAPGQEPGQAPGQEPKP
chain 2: FVNQHLCGSHLVEALYLVCGERGFHYTPR
chain 3: B1 chain 3
modifications: Cys229 (EU numbering) sulphur bound to an acetyl arm of the linker; A70K N(eps) acylated by the trivalent linker 4-[bis[2-[(2-acetyl)amino]ethyl]amino]-4-oxo-butanoyl
notes: also called Ex 5.14
B4: (A14E, A21G, A22(GQAP)24, A118G, A119Q, A120A, A121K^, A122P, B25H, B29R, desB30 human insulin)/(227A, 234A, 235K, 297E, 315Q, 384Q, des447 hIgG4-Fc(228-447)) … (other)
chain 1: GIVEQCCTSICSLEQLENYCGGQAPGQAPGQAPGQAPGQAPGQAPGQAPGQAPGQAPGQAPGQAPGQAPGQAPGQAPGQAPGQAPGQAPGQAPGQAPGQAPGQAPGQAPGQAPGQAPGQAKP
chain 2: FVNQHLCGSHLVEALYLVCGERGFHYTPR
chain 3: B1 chain 3
modifications: Cys229 (EU numbering) sulphur bound to an acetyl arm of the linker; A121K N(eps) acylated by the trivalent linker 3,5-bis[(2-acetyl)amino]benzoyl
notes: also called Ex 5.22
B5: (A14E, A21G, A22(GQAP)24, A118G, A119Q, A120A, A121K^, A122P, B25H, B29R, desB30 human insulin)/(227A, 234A, 235K, 297E, 315Q, 384Q, des447 hIgG4-Fc(228-447)) … (other)
chain 1: B4 chain 1
chain 2: FVNQHLCGSHLVEALYLVCGERGFHYTPR
chain 3: B1 chain 3
modifications: Cys229 (EU numbering) sulphur bound to an acetyl arm of the linker; A121K N(eps) acylated by the trivalent linker 4-[bis[2-[(2-acetyl)amino]ethyl]amino]-4-oxo-butanoyl
notes: also called Ex 5.23
B6: (A14E, A21G, A22(GQAP)19, A98K^, A99P, B25H, B29R, desB30 human insulin)/(227A, 234A, 235K, 297E, 315Q, 384Q, des447 hIgG4-Fc(228-447)) … (other)
chain 1: B1 chain 1
chain 2: FVNQHLCGSHLVEALYLVCGERGFHYTPR
chain 3: B1 chain 3
modifications: Cys229 (EU numbering) sulphur bound to an acetyl arm of the linker; A98K N(eps) acylated by the trivalent linker 6-[bis[2-[(2-acetyl)amino]ethyl]amino]-6-oxo-hexanoyl
notes: also called Ex 5.16
B7: A14E, A21G, A22(GQAPGQAPGQAPGQEP)6-GQAP, A122K^, A123P, B25H, B29R, desB30 human insulin/(227A, 234A, 235K, 297E, 315Q, 384Q, des447 hIgG4-Fc(228-447)) … (other)
chain 1: GIVEQCCTSICSLEQLENYCGGQAPGQAPGQAPGQEPGQAPGQAPGQAPGQEPGQAPGQAPGQAPGQEPGQAPGQAPGQAPGQEPGQAPGQAPGQAPGQEPGQAPGQAPGQAPGQEPGQAPKP
chain 2: FVNQHLCGSHLVEALYLVCGERGFHYTPR
chain 3: B1 chain 3
modifications: Cys229 (EU numbering) sulphur bound to an acetyl arm of the linker; A122K N(eps) acylated by the trivalent linker 4-[bis[2-[(2-acetyl)amino]ethyl]amino]-4-oxo-butanoyl
notes: also called Ex 5.20
B8: (A14E, A21G, A22(GQAP)18, A94G, A95Q, A96A, A97K^, A98P, B29R, desB30 human insulin)/(227A, 234A, 235K, 297E, 315Q, 384Q, des447 hIgG4-Fc(228-447)) … (other)
chain 1: GIVEQCCTSICSLEQLENYCGGQAPGQAPGQAPGQAPGQAPGQAPGQAPGQAPGQAPGQAPGQAPGQAPGQAPGQAPGQAPGQAPGQAPGQAPGQAKP
chain 2: FVNQHLCGSHLVEALYLVCGERGFFYTPR
chain 3: B1 chain 3
modifications: Cys229 (EU numbering) sulphur bound to an acetyl arm of the linker; A97K N(eps) acylated by the trivalent linker 4-[bis[2-[(2-acetyl)amino]ethyl]amino]-4-oxo-butanoyl
notes: also called Ex 5.26
B9: A14E, A21G, A22(GQEP)6, A46K^, A47P, B25H, B29R, desB30 human insulin/(227A, 234A, 235K, 297E, 315Q, 384Q, des447 hIgG4-Fc(228-447)) … (other)
chain 1: GIVEQCCTSICSLEQLENYCGGQEPGQEPGQEPGQEPGQEPGQEPKP
chain 2: FVNQHLCGSHLVEALYLVCGERGFHYTPR
chain 3: B1 chain 3
modifications: Cys229 (EU numbering) sulphur bound to an acetyl arm of the linker; A46K N(eps) acylated by the trivalent linker 4-[bis[2-[(2-acetyl)amino]ethyl]amino]-4-oxo-butanoyl
notes: also called Ex 5.32
B10: (A14E, A21G, A22(GQEP)19, A98K^, A99P, B25H, B29R, desB30 human insulin)/(227A, 234A, 235K, 297E, 315Q, 384Q, des447 hIgG4-Fc(228-447)) … (other)
chain 1: B2 chain 1
chain 2: FVNQHLCGSHLVEALYLVCGERGFHYTPR
chain 3: B1 chain 3
modifications: Cys229 (EU numbering) sulphur bound to an acetyl arm of the linker; A98K N(eps) acylated by the trivalent linker 4-[bis[2-[(2-acetyl)amino]ethyl]amino]-4-oxo-butanoyl
notes: also called Ex 5.12
B11: A14E, A21G, A22(GQAPGQAPGQEP)6-GQAP, A98K^, A99P, B3Q, B25H, B29R, desB30 human insulin/(227A, 234A, 235K, 297E, 315Q, 384Q, des447 hIgG4-Fc(228-447)) … (other)
chain 1: B1 chain 1 with A32E, A44E, A56E, A68E, A80E, A92E
chain 2: FVQQHLCGSHLVEALYLVCGERGFHYTPR
chain 3: B1 chain 3
modifications: Cys229 (EU numbering) sulphur bound to an acetyl arm of the linker; A98K N(eps) acylated by the trivalent linker 4-[bis[2-[(2-acetyl)amino]ethyl]carbamoylamino]butanoyl
notes: also called Ex 5.24

What follows are binders tested against insulin receptor of isolated rat adipocytes (rat, UniProt P15127 27-1383) (assay: cell-based or functional assay).
insulin receptor of isolated rat adipocytes, sequence (P15127 27-1383): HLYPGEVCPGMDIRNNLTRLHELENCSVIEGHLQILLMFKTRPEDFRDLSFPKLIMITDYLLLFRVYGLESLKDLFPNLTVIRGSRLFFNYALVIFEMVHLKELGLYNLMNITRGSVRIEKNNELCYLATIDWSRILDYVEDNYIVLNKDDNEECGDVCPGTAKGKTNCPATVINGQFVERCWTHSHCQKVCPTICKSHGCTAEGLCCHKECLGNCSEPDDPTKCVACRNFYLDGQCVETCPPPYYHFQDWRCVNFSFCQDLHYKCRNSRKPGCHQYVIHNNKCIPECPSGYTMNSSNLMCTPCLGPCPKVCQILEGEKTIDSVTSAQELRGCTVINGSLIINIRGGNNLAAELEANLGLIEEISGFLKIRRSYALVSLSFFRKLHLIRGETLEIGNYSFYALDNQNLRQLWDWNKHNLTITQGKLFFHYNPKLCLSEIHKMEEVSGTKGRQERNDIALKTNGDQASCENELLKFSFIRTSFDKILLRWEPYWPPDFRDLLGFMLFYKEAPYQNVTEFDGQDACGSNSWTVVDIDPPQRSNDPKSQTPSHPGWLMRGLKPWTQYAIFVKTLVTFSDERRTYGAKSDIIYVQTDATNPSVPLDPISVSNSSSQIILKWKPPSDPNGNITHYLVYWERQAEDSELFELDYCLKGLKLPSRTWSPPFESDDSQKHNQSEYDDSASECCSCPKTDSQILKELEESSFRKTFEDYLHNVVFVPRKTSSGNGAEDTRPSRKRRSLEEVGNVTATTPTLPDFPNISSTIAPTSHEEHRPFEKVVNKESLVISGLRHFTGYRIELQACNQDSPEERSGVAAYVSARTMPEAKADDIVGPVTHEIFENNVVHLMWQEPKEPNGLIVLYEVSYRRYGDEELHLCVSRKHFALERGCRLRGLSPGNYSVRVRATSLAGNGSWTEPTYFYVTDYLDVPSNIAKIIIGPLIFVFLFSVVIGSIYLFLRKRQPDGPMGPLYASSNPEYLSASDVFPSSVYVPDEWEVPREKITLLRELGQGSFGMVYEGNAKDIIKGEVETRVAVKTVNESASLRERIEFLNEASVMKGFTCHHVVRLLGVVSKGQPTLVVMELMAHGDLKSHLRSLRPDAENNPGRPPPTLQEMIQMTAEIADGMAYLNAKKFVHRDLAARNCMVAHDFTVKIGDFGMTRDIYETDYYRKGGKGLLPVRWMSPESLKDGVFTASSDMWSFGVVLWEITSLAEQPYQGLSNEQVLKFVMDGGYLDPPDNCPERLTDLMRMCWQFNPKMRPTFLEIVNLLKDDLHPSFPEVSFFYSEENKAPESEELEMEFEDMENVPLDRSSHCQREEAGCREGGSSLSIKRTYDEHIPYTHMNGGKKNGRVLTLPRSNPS

Row | Lipogenesis in rat adipocytes [Potency (%)] Mean Value | Binder
1 | 3.68 % of human insulin | B1
2 | 3.57 % of human insulin | B2
3 | 4.86 % of human insulin | B3
4 | 4.64 % of human insulin | B4
5 | 5.36 % of human insulin | B5
6 | 4.34 % of human insulin | B6
7 | 5.41 % of human insulin | B7
8 | 3.23 % of human insulin | B8
9 | 3.72 % of human insulin | B9
10 | 2.35 % of human insulin | B10
11 | 3.83 % of human insulin | B11

The binders below were run against insulin receptor A (UniProt P06213-2 28-1370, limits assumed) (assay: insulin receptor binding assay as in Vienberg et al. 2011; relative to human insulin on insulin receptor A (100%)).
insulin receptor A, sequence (P06213 other isoform, or with tags, fused parts or gaps limits assumed): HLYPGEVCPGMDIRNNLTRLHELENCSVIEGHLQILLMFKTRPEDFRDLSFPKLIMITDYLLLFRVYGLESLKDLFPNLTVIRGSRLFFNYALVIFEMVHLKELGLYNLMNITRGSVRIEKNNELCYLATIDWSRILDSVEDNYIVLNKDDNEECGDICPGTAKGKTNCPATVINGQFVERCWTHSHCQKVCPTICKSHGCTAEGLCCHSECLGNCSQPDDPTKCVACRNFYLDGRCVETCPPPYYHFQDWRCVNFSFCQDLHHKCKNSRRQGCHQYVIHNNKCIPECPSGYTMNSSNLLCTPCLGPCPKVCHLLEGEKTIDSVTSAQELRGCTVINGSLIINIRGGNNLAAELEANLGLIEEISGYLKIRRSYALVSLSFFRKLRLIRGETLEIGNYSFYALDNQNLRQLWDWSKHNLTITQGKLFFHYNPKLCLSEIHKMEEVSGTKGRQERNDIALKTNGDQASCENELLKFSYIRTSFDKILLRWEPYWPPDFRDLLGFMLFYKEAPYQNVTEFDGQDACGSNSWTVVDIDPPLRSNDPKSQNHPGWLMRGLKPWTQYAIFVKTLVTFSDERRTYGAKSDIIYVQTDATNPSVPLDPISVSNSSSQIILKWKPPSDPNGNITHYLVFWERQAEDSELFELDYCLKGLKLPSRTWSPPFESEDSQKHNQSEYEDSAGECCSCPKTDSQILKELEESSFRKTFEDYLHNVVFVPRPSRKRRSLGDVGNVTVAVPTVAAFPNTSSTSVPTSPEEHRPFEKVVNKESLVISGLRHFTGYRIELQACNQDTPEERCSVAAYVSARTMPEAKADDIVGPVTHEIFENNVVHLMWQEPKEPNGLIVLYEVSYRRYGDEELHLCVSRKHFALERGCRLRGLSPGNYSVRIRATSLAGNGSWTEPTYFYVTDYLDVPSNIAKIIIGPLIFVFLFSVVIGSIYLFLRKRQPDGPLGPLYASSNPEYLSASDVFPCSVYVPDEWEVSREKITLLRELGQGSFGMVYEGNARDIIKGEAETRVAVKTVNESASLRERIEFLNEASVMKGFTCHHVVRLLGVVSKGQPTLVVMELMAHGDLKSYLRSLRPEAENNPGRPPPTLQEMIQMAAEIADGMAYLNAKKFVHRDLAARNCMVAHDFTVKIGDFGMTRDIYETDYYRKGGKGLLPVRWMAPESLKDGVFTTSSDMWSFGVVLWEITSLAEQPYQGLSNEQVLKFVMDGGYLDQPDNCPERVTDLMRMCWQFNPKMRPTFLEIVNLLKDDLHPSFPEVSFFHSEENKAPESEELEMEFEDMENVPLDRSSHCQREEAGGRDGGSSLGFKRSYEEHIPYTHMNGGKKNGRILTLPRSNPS

Row | Insulin receptor affinity [IC50 relative to HI (%)] | Binder
12 | 3.68% | B1
13 | 6.1% | B2
14 | 5.37% | B3
15 | 3.56% | B4
16 | 4.7% | B5
17 | 3.86% | B6
18 | 5.49% | B7
19 | 3.95% | B8
20 | 2.16% | B9
21 | 1.85% | B10
22 | 4.6% | B11
